Data set [1] concerns the molecule itself. Kind of data set: SEC; gel filtration on Superdex 200 10/300 GL, in the presence of FBP; similar protein concentrations and conditions for all proteins.
Data set [2] deals with the molecule itself. The data set can be described thus: crystal structure; crystals grown at 18°C by hanging-drop vapor diffusion, protein 15-20 mg/mL, in the absence of FBP (malonate for K305Q, L-proline for Y105E).
Data set [3] concerns the molecule itself. Kind of data set: cell-based or functional assay.

B1: PKM2^K422R (a patient-derived mutation) (enzyme)
chain: not shown
Broadly, the stoichiometry N is a count of units in the complex or per binding partner. In the case of B1, the “stoichiometry N” value in data set [1] amounted to 4.

B2: PKM2^R399E (a dimeric mutant) (enzyme)
chain: not shown
B2: in data set [2], the “stoichiometry N” value was found to be 4.

B3: PKM2^Y105E (phosphorylation mimic of Y105) (enzyme)
chain: not shown
With B3, the “stoichiometry N” value in data set [2] came out at 4.

B4: PKM2^K305Q (acetylation mimic of K305) (enzyme)
chain: not shown
B4: the “normalized kcat/Km of pyruvate kinase activity (PKM2^WT as standard) in the presence of FBP” value in data set [3] was 0.2 relative to kcat/Km of PKM2^WT. Further, the “stoichiometry N” value in data set [1] worked out at 2; in data set [2], 4.

The record behind these values is publication PMC4383751 (Protein & Cell, 2015).
